According to patent US20080200369A1 (SANFORD BURNHAM MEDICAL RESEARCH INSTITUTE, published 2008):

Target: T1, [^35S]-tastin (UniProt Q12815 1-778, limits assumed, [^35S]-methionine labeled)
T1 construct: also called in vitro translated [^35S]-labeled tastin
T1 sequence (looked up): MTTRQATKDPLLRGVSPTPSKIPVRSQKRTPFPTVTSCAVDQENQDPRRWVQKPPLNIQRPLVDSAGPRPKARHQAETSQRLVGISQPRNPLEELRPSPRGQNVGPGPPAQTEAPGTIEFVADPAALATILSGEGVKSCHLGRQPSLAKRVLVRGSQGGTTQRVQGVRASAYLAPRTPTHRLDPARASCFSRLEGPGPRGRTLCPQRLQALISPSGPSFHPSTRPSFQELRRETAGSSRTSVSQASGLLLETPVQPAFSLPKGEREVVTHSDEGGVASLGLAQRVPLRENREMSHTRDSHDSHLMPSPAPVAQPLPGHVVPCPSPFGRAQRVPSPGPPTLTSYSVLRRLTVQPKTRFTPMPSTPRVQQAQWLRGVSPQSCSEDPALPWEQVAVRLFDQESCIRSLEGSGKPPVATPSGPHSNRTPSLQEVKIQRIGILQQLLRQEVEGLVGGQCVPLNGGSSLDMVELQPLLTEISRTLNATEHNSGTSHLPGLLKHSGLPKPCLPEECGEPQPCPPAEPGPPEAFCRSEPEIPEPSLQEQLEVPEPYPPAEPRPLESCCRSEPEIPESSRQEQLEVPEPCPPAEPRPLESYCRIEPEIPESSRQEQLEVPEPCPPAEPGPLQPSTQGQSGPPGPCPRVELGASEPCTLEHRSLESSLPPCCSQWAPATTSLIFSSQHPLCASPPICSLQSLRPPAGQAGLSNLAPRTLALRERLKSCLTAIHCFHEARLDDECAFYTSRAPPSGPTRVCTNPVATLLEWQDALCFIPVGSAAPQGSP
Assay: GST pull-down of in vitro translated [^35S]-protein on glutathione beads, autoradiography (FIG. 7A)
Protocol: In vitro translated [³⁵S]-labeled trophinin, bystin or tastin was incubated with GST or GST-ErbB4 immobilized on glutathione beads. Bead-bound materials were visualized by autoradiography after gel electrophoresis. […] Bead-bound materials were visualized by autoradiography. Note that trophinin is captured by GSTErbB4 when bystin is present. […] HT-H cells treated with or without GWRQ peptide were subjected to immunoprecipitation with antiErbB4 antibody, followed by western blot analysis. Note that trophinin and bystin were co-immunoprecipitated with ErbB4 from cells not treated with GWRQ, whereas less trophinin was present in precipitates from GWRQ-treated cells.
A GST-fusion protein pull-down assay was carried out as described (Swaffield, J C, et al. 1996). Trophinin, bystin, and tastin proteins were produced as [³⁵S]-methionine labeled proteins using an vitro transcription and translation kit (TnT, Promega), according to the manufacturer's protocol. [³⁵S]-trophinin, [³⁵S]-bystin, and [³⁵S]-tastin were mixed individually with GSTErbB4 immobilized on glutathione beads in binding buffer (Swaffield, J C, et al. 1996) at 4° C. for 1 hour. After washing unbound materials with binding buffer, bead-bound material was eluted by boiling in SDS sample buffer. [³⁵S]-labeled proteins eluted were analyzed by SDS-PAGE followed by fluorography.

B1: GST-ErbB4 fusion protein (cytoplasmic domain of human ErbB4) (other, UniProt Q15303 676-1308, looked up)
chain: RRKSIKKKRALRRFLETELVEPLTPSGTAPNQAQLRILKETELKRVKVLGSGAFGTVYKGIWVPEGETVKIPVAIKILNETTGPKANVEFMDEALIMASMDHPHLVRLLGVCLSPTIQLVTQLMPHGCLLEYVHEHKDNIGSQLLLNWCVQIAKGMMYLEERRLVHRDLAARNVLVKSPNHVKITDFGLARLLEGDEKEYNADGGKMPIKWMALECIHYRKFTHQSDVWSYGVTIWELMTFGGKPYDGIPTREIPDLLEKGERLPQPPICTIDVYMVMVKCWMIDADSRPKFKELAAEFSRMARDPQRYLVIQGDDRMKLPSPNDSKFFQNLLDEEDLEDMMDAEEYLVPQAFNIPPPIYTSRARIDSNRSEIGHSPPPAYTPMSGNQFVYRDGGFAAEQGVSVPYRAPTSTIPEAPVAQGATAEIFDDSCCNGTLRKPVAPHVQEDSSTQRYSADPTVFAPERSPRGELDEEGYMTPMRDKPKQEYLNPVEENPFVSRRKNGDLQALDNPEYHNASNGPPKAEDEYVNEPLYLNTFANTLGKAEYLKNNILSMPEKAKKAFDNPDYWNHSLPPRSTLQHPDYLQEYSTKYFYKQNGRIRPIVAENPEYLSEFSLKPGTVLPPPPYRHRNTVV
notes: domain: cytoplasmic domain; Expressed in bacteria, immobilized on glutathione beads; Linker between GST and ErbB4 not described; not shown: glutathione S-transferase encoded by the vector pGEX-KG
B1: no binding.
